Laboratory results taken from patent US20190083612A1 (RINAT NEUROSCIENCE, published 2019).

How the values were obtained:
[1] = target: human PD-1 on primary human T cells (human) (UniProt Q15116); assay: FACS, activated primary human T cells
[2] = target: T1, rat PD-1 on primary rat T cells (rat, UniProt D3ZIN8 25-287); assay: FACS, naive primary rat T cells
T1 sequence: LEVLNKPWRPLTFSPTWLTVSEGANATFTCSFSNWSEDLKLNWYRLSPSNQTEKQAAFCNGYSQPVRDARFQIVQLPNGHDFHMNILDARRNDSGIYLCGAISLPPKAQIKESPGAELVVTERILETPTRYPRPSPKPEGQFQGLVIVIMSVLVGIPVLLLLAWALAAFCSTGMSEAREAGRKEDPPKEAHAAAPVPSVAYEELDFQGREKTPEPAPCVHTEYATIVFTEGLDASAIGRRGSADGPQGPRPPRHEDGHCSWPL

[3] = target: cynomolgus monkey PD-1 on primary cynomolgus monkey T cells (cynomolgus monkey) (UniProt B0LAJ3); assay: FACS, naive primary cynomolgus monkey T cells
cynomolgus monkey PD-1 on primary cynomolgus monkey T cells (cynomolgus monkey), sequence (B0LAJ3 entry or part of it limits assumed): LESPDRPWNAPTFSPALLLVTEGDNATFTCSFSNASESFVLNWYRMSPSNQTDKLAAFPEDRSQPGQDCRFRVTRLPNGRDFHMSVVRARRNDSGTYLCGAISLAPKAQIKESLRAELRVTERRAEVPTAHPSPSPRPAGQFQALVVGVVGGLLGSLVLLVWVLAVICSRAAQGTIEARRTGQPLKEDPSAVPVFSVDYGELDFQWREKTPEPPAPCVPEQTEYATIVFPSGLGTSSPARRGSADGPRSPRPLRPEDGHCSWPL

[4] = target: cynomolgus monkey PD-1 on primary cynomolgus monkey T cells (cynomolgus monkey) (UniProt B0LAJ3); assay: FACS, activated primary cynomolgus monkey T cells
[5] = target: human PD-1 on primary human T cells (human) (UniProt Q15116); assay: FACS, naive primary human T cells
[6] = target: T1, rat PD-1 on primary rat T cells; assay: FACS, activated primary rat T cells
[7] = target: human PD-1 on primary human T cells (human) (UniProt Q15116); assay: cell-based or functional assay
[8] = target: T2, human PD-1 (hPD-1) monomer (human, UniProt Q15116 25-167); assay: SPR (ProteOn), hPD-1 monomer over amine-coupled IgG, 25 C; 5% rule
T2 construct: also called hu-PD-1; not shown: His tag (His-tagged monomer)
T2 sequence (Q15116 25-167 limits assumed): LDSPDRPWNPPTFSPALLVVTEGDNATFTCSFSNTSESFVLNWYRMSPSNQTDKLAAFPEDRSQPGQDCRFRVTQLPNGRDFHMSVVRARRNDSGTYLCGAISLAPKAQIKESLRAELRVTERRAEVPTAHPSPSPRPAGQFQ
Protocol: (§1) The surfaces for these experiments were prepared in three steps; (1) the ligand channels were minimally activated for two min using a freshly prepared mixture of the activation reagents at final 0.8 mM EDC and 0.2 mM sulfo-NHS in water, (2) the IgGs were coupled for three min at 15 μg/ml in 10 mM sodium acetate pH 4.5, and (3) excess reactive esters were blocked for three min with 1 M ethanolamine HCl pH 8.5. […] Association and dissociation times were 3 min and 20 min, respectively and all analytes were injected in duplicate binding cycles. Surfaces were regenerated with a cocktail of 2:1 v/v Pierce IgG elution buffer (pH 2.8):4 M NaCl.
N=2 refers to two independent experiments on different chips.

[9] = target: T2, human PD-1 (hPD-1) monomer; assay: SPR (ProteOn), hPD-1 monomer over amine-coupled IgG, 25 C
Protocol: (§2) All interaction analysis was performed on label-free biosensors at 25° C. unless stated otherwise. Surface plasmon resonance biosensors (ProteOn-XPR™ from BioRad™, and Biacore 2000™ and Biacore T200™ from GE Life Sciences) were used to study human and cynomolgus monkey PD-1 and a biolayer interferometry biosensor (Octet-Red384, Fortebio/Pall Life Sciences) was used to study mouse PD-1. ProteOn experiments were performed in PBS pH 7.4+0.01% Tween-20 (PBST) running buffer. Biacore experiments were performed in 10 mM Hepes pH 7.4, 150 mM NaCl, 0.05% Tween-20 (HBST+) and Octet experiments were performed in HBST+ with 1 g/l BSA. The ProteOn data were processed in the ProteOn Manager software, the Biacore data were processed in Biaevaluation, and the Octet data were simply aligned to zero in the control software.
as §1

[10] = target: T3, cynoPD-1-hFc1 (prepared in-house) (cynomolgus monkey; human, UniProt B0LAJ3 25-170); assay: SPR (Biacore 2000), Fab over anti-hFc-captured PD-1-hFc1, 25 C
T3 sequence (B0LAJ3 entry or part of it limits assumed): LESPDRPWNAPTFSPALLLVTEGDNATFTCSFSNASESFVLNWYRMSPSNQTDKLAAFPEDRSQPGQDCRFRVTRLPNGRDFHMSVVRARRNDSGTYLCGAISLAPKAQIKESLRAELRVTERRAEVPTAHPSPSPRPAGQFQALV
Protocol: as §2
(§3) An anti-hFc polyclonal antibody was amine-coupled to the chip and used to capture approximately 90 RU hPD-1-hFc1 and 125 RU cynoPD-1-hFc1 on flow cells 2 and 3, leaving flow cell 1 blank (naked anti-hFc capture surface) to provide a reference channel. Recombinant purified Fabs were injected for two min as analyte at 0, 10, and 100 nM over freshly captured PD-1-hFc1 fusion proteins, allowing a 15-min dissociation time.

[11] = target: T4, hPD-1-hFc1 (R&D systems cat. no. 1086PD) (human, UniProt Q15116 25-167); assay: as above
T4 construct: Bought; not shown: human IgG1 Fc (hFc1)
T4 sequence (Q15116 25-167 limits assumed): as the sequence (Q15116 25-167 limits assumed) above
Protocol: as §2, §3

[12] = target: T3, cynoPD-1-hFc1 (prepared in-house); assay: SPR (Biacore 2000), Fab over anti-hFc-captured PD-1-hFc1, 25 C; 5% rule
Protocol: as §3

[13] = target: T4, hPD-1-hFc1 (R&D systems cat. no. 1086PD); assay: as above
Protocol: as §3

[14] = target: T2, human PD-1 (hPD-1) monomer; assay: SPR, human PD-1, 25 C
[15] = target: T2, human PD-1 (hPD-1) monomer; assay: SPR (Biacore T200), hPD-1 monomer over anti-hFc-captured hIgG4, 25 C
Protocol: as §2
(§4) The hPD-1 was injected at active concentrations of 0, 10, and 100 nM for three minutes allowing an 18-min dissociation phase. The capture surfaces were regenerated with 75 mM phosphoric acid after each binding cycle.

[16] = target: T2, human PD-1 (hPD-1) monomer; assay: SPR (Biacore T200), hPD-1 monomer over anti-hFc-captured hIgG4, 37 C
Protocol: as §4

human PD-1 on primary human T cells (human), sequence (Q15116 25-288 limits assumed): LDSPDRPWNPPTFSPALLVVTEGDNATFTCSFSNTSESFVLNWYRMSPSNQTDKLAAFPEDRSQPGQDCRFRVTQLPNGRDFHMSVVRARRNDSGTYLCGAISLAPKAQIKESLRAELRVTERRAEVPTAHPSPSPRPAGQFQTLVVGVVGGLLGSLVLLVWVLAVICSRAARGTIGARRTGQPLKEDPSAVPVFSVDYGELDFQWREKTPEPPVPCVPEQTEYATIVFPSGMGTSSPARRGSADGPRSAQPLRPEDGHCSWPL

Negative control antibody (anti-bovine herpes virus, IgG4-HG framework)
% Binding [1]: 4.75% | % Binding [2]: 0.82% | % Binding [3]: 5.38% | % Binding [4]: 4.67% | % Binding [5]: 3.49% | % Binding [6]: 4.36%

EH12.1 (BD Biosciences mouse anti human anti-PD-1 antibody, mouse isotype IgG1 Kappa)
IFNγ (pg/ml), MLR day 5, antibody 0.0001 µg/ml [7]: 1700 pg/mL | IFNγ (pg/ml), MLR day 5, antibody 0.001 µg/ml [7]: 2280 pg/mL | IFNγ (pg/ml), MLR day 5, antibody 0.01 µg/ml [7]: 4380 pg/mL | IFNγ (pg/ml), MLR day 5, antibody 0.1 µg/ml [7]: 4730 pg/mL | IFNγ (pg/ml), MLR day 5, antibody 1 µg/ml [7]: 9910 pg/mL | IFNγ (pg/ml), MLR day 5, antibody 10 µg/ml [7]: 15100 pg/mL | TNF (pg/ml), MLR day 5, antibody 0.0001 µg/ml [7]: 753 pg/mL | TNF (pg/ml), MLR day 5, antibody 0.001 µg/ml [7]: 687 pg/mL | TNF (pg/ml), MLR day 5, antibody 0.01 µg/ml [7]: 859 pg/mL | TNF (pg/ml), MLR day 5, antibody 0.1 µg/ml [7]: 745 pg/mL | TNF (pg/ml), MLR day 5, antibody 1 µg/ml [7]: 979 pg/mL | TNF (pg/ml), MLR day 5, antibody 10 µg/ml [7]: 1950 pg/mL

B1: mAb7 IgG1 AAA (antibody, V domains shown)
VH: QVQLVQSGAEVKKPGASVKVSCKASGYTFTSYWINWVRQAPGQGLEWMGNIYPGSSLTNYNEKFKNRVTMTRDTSTSTVYMELSSLRSEDTAVYYCARLSTGTFAYWGQGTLVTVSS
VL: DIVMTQSPDSLAVSLGERATINCKSSQSLWDSGNQKNFLTWYQQKPGQPPKLLIYWTSYRESGVPDRFSGSGSGTDFTLTISSLQAEDVAVYYCQNDYFYPHTFGGGTKVEIK
notes: also called mAb7-AAA
koff [8]: < 4.3e-05 s⁻¹ | Kd [9]: < 0.086 nM | kon [9]: 497000 M⁻¹ s⁻¹

B2: mAb7 Fab (Fab, V domains shown)
VH: QVQLVQSGAEVKKPGASVKVSCKASGYTFTSYWINWVRQAPGQGLEWMGNIYPGSSLTNYNEKFKNRVTMTRDTSTSTVYMELSSLRSEDTAVYYCARLSTGTFAYWGQGTLVTVSS
VL: DIVMTQSPDSLAVSLGERATINCKSSQSLWDSGNQKNFLTWYQQKPGQPPKLLIYWTSYRESGVPDRFSGSGSGTDFTLTISSLQAEDVAVYYCQNDYFYPHTFGGGTKVEIK
Kd [10]: < 0.108 nM | kon [10]: 526000 M⁻¹ s⁻¹ | Kd [11]: < 0.101 nM | kon [11]: 567000 M⁻¹ s⁻¹ | koff [12]: < 5.7e-05 s⁻¹ | koff [13]: < 5.7e-05 s⁻¹

B3: mAb14 (antibody, V domains shown)
VH: QVQLVQSGAEVKKPGASVKVSCKASGYTFTSYWINWVRQAPGQGLEWMGNIWPGSSLTNYNEKFKNRVTMTRDTSTSTVYMELSSLRSEDTAVYYCARLLTGTFAYWGQGTLVTVSS
VL: DIVMTQSPDSLAVSLGERATINCKSSQSLWDSGNQKNFLTWYQQKPGQPPKLLIYWTSYRESGVPDRFSGSGSGTDFTLTISSLQAEDVAVYYCQNDYFYPLTFGGGTKVEIK
notes: Variable regions only
Kd [14]: 0.6 nM

B4: mAb13 (antibody, V domains shown)
VH: QVQLVQSGAEVKKPGASVKVSCKASGYTFTSYWINWVRQAPGQGLEWMGNIWPGSSLTNYNEKFKNRVTMTRDTSTSTVYMELSSLRSEDTAVYYCARLLTGTFAYWGQGTLVTVSS
VL: DIVMTQSPDSLAVSLGERATINCKSSQSLWDSGNQKNFLTWYQQKPGQPPKLLIYWTSTRESGVPDRFSGSGSGTDFTLTISSLQAEDVAVYYCQNDYFYPLTFGGGTKVEIK
notes: Variable regions only
Kd [14]: 5.87 nM

B5: mAb11 (antibody, V domains shown)
VH: QVQLVQSGAEVKKPGASVKVSCKASGYTFTSYWINWVRQAPGQGLEWMGNIYPGSSITNYNEKFKNRVTMTRDTSTSTVYMELSSLRSEDTAVYYCARLTTGTFAYWGQGTLVTVSS
VL: DIVMTQSPDSLAVSLGERATINCKSSQSLWDSGNQKNFLTWYQQKPGQPPKLLIYWTSYRESGVPDRFSGSGSGTDFTLTISSLQAEDVAVYYCQNDYFYPHTFGGGTKVEIK
notes: Variable regions only
Kd [14]: 0.93 nM

B6: mAb15 Fab (Fab, V domains shown)
VH: QVQLVQSGAEVKKPGASVKVSCKASGYTFTSYWINWVRQAPGQGLEWMGNIWPGSSLTNYNEKFKNRVTMTRDTSTSTVYMELSSLRSEDTAVYYCARLLTGTFAYWGQGTLVTVSS
VL: DIVMTQSPDSLAVSLGERATINCKSSQSLWDSGNQKNFLTWYQQKPGQPPKLLIYWTSYRESGVPDRFSGSGSGTDFTLTISSLQAEDVAVYYCQNDYFYPHTFGGGTKVEIK
Kd [10]: < 0.069 nM | kon [10]: 824000 M⁻¹ s⁻¹ | Kd [11]: < 0.062 nM | kon [11]: 916000 M⁻¹ s⁻¹ | koff [12]: < 5.7e-05 s⁻¹ | koff [13]: < 5.7e-05 s⁻¹

B7: mAb15 (human IgG4 kappa, hinge stabilized) (antibody, V domains shown)
VH: QVQLVQSGAEVKKPGASVKVSCKASGYTFTSYWINWVRQAPGQGLEWMGNIWPGSSLTNYNEKFKNRVTMTRDTSTSTVYMELSSLRSEDTAVYYCARLLTGTFAYWGQGTLVTVSS
VL: DIVMTQSPDSLAVSLGERATINCKSSQSLWDSGNQKNFLTWYQQKPGQPPKLLIYWTSYRESGVPDRFSGSGSGTDFTLTISSLQAEDVAVYYCQNDYFYPHTFGGGTKVEIK
notes: also called mAb15-G4; mAb15 (G4)
koff [8]: < 4.3e-05 s⁻¹ | Kd [9]: < 0.058 nM | kon [9]: 732000 M⁻¹ s⁻¹ | Kd [15]: 0.49 nM | koff [15]: 0.000171 s⁻¹ | kon [15]: 349000 M⁻¹ s⁻¹ | Kd [16]: 0.54 nM | koff [16]: 0.000373 s⁻¹ | kon [16]: 694000 M⁻¹ s⁻¹ | Kd [14]: 0.49 nM

B8: mAb15 IgG1 AAA (antibody, V domains shown)
VH: QVQLVQSGAEVKKPGASVKVSCKASGYTFTSYWINWVRQAPGQGLEWMGNIWPGSSLTNYNEKFKNRVTMTRDTSTSTVYMELSSLRSEDTAVYYCARLLTGTFAYWGQGTLVTVSS
VL: DIVMTQSPDSLAVSLGERATINCKSSQSLWDSGNQKNFLTWYQQKPGQPPKLLIYWTSYRESGVPDRFSGSGSGTDFTLTISSLQAEDVAVYYCQNDYFYPHTFGGGTKVEIK
notes: also called mAb15-AAA
koff [8]: < 4.3e-05 s⁻¹ | Kd [9]: < 0.053 nM | kon [9]: 813000 M⁻¹ s⁻¹

B9: mAb12 (antibody, V domains shown)
VH: QVQLVQSGAEVKKPGASVKVSCKASGYTFTSYWINWVRQAPGQGLEWMGNIYPGSSITNYNEKFKNRVTMTRDTSTSTVYMELSSLRSEDTAVYYCARLTTGTFAYWGQGTLVTVSS
VL: DIVMTQSPDSLAVSLGERATINCKSSQSLWDSTNQKNFLTWYQQKPGQPPKLLIYWTSTRESGVPDRFSGSGSGTDFTLTISSLQAEDVAVYYCQNDYFYPLTFGGGTKVEIK
notes: Variable regions only
Kd [14]: 17.3 nM

B10: mAb16 (antibody, V domains shown)
VH: QVQLVQSGAEVKKPGASVKVSCKASGYTFTSYWINWVRQAPGQGLEWMGNIWPGSSLTNYNEKFKNRVTMTRDTSTSTVYMELSSLRSEDTAVYYCARLLTGTFAYWGQGTLVTVSS
VL: DIVMTQSPDSLAVSLGERATINCKSSQSLWDSTNQKNFLTWYQQKPGQPPKLLIYWTSTRESGVPDRFSGSGSGTDFTLTISSLQAEDVAVYYCQNDYFYPLTFGGGTKVEIK
notes: Variable regions only
Kd [14]: 7.51 nM
